Laboratory results published in paper PMC13408441, “Molecular regulation and physiological role of GOLPH3-mediated Golgi retention” (Nature Communications, 2026).

How the values were obtained:
[1] = molecular target: T1, GOLPH3-4G (Homo sapiens, UniProt Q9H4A6, F194G/F197G/L195G/L196G); test: NMR 1H-15N HSQC titration of LCS tail peptide into 15N-labeled GOLPH3-4G; type: binding; settings: final LCS titration point, MES pH 6.5, 250 mM NaCl, 308K
T1 construct: 10xHistidine tag (N, cleaved yes); Twin-Strep-tag (N, cleaved yes); made in house; host or cells: E. coli BL21(DE3)
Experimental: (§1) Supplemental Material for Theodoropoulou, Nasrallah, et al 2026 buffer. Pooled fractions were concentrated to the required concentration using a MWCO concentrator (Millipore) with a cutoff of 10 kDa.
(§2) Size exclusion chromatography coupled to multi-angle light scattering
(§3) The molecular weights of the tested constructs were determined by size exclusion chromatography coupled to multi-angle light scattering (SEC-MALS). The mass measurements were performed on a UltiMate3000 HPLC system equipped with a 3 angles miniDAWN TREOS static light scattering detector (Wyatt Technology). The sample volumes of 5−10 μl at a concentration of 12 mg/mL, were applied to a Superdex 200 5/150 GL column (Cytiva) previously equilibrated with 250 mM NaCl, 50 mM Tris pH 8.0, 1 mM TCEP at a flow rate of 0.08 mL/min. The data were analyzed using the ASTRA 6.1 software package (Wyatt technology), using the absorbance at 280 nm and the theoretical extinction coefficient for concentration measurements.
(§4) Nuclear Magnetic Resonance (NMR) Spectroscopy
All proteins used for NMR experiments were designed on the GOLPH3-4G background due […]
Recombinant proteins were prepared with the isotope enrichment scheme appropriate for each experiment (i.e. 15N-only or 15N, 13C) in 20 mM MES […]
buffer pH 6.5 with 250 mM NaCl and 10% 2H2O.
Protein concentrations were around 300 µM for all NMR experiments, […]
spectrometer equipped with a CPTC 1H, 13C, 15N 5 mm cryoprobe and an Avance Neo console.
CA, and C) and CB resonances were assigned using a standard procedure based on conventional 3D HNCA, HN(CO)CA, HNCO, HN(CA)CO, CBCA(CO)NH and HNCACB spectra. All spectra were acquired and processed using Bruker’s Topspin 4.0 software.
Backbone assignments were obtained through manual spectral analysis assisted by the […]
spectra acquired on single-point mutants. […]
residues are provided in Table S1 and deposited in the BMRB under ID 53516.

[2] = CD thermal denaturation of GOLPH3 proteins; type: physicochemical, human; settings: CD at 207 nm, 20 to 95 °C at 1 °C/min, 10 μM protein, 100 mM NaCl, 50 mM Tris pH 7.4, 1 mM TCEP
Experimental: (§5) Supplemental Material for Theodoropoulou, Nasrallah, et al 2026
Isothermal titration calorimetry
Isothermal titration calorimetry (ITC) experiments were performed on a MicroCal PEAQ-ITC (Malvern Panalytical), with GOLPH3 variants being in a buffer containing 250 mM NaCl, 50 mM Tris pH 8.0 and 1 mM TCEP. LCS peptides were synthesised and delivered as lyophilised powder (Genscript). The peptides were dissolved in the protein buffer and their concentrations were calculated based upon their absorbance at 280 nm and their corresponding molar extinction coefficient. Experiments consisted of titrations of a single 0.4 µL injection followed […]
GOLPH3 proteins at a 100 μM concentration. Experiments were performed at 25 °C in triplicate (n = 3), with injection duration of 4 s, injection spacing of 150 s, stir speed of 750 rpm, and reference power of 7 μcal/s. Data were processed and plotted using MicroCal PEAQ‐ITC Analysis Software and fitted to a one‐site binding model.
(§6) Circular Dichroism Spectroscopy
(§7) Circular Dichroism Spectra of GOLPH3 proteins (at 10 μM in 100 mM NaCl, 50 mM Tris pH 7.4 and 1 mM TCEP) were collected with a Chirascan V100 (AppliedPhotophysics), using a 1 mm path length cuvette, at 20 °C, in the 200-260 nm range. Thermal denaturation experiments […]
(§8) every 1 °C, with a temperature ramp speed of 1 °C/min and an equilibration time of […]
(§9) Table S2: Fits of CD spectra to fractions of secondary structure for Golph3 WT and various mutants of it, carried out with the BestSel server

[3] = CD secondary structure of GOLPH3 proteins (BestSel fits); type: physicochemical, human; settings: 10 μM, 100 mM NaCl, 50 mM Tris pH 7.4, 1 mM TCEP, 20 °C
Experimental: as §5
Isothermal titration calorimetry […]
as §6, §7, §8, §9

[4] = SEC-MALS of GOLPH3 constructs; type: physicochemical, human; settings: 12 mg/mL, 250 mM NaCl, 50 mM Tris pH 8.0, 1 mM TCEP
Experimental: as §1, §2, §3, §4
All proteins used for NMR experiments were designed on the GOLPH3-4G background due to its higher stability and solubility. Recombinant proteins were prepared with the isotope enrichment scheme appropriate for each experiment (i.e. 15N-only or 15N, 13C) in 20 mM MES buffer pH 6.5 with 250 mM NaCl and 10% 2H2O. Lower salt, even by 10%, yielded much degraded spectra. […]

B1: GOLPH3-4G: mutant F194G/L195G/L196G/F197G with improved solubility (protein)
chain: MTSLTQRSSGLVQRRTEASRNAADKERAAGGGAGSSEDDAQSRRDEQDDDDKGDSKETRLTLMEEVLLLGLKDREGYTSFWNDCISSGLRGCMLIELALRGRLQLEACGMRRKSLLTRKVICKSDAPTGDVLLDEALKHVKETQPPETVQNWIELLSGETWNPLKLHYQLRNVRERLAKNLVEKGVLTTEKQNGGGGDMTTHPLTNNNIKQRLIKKVQEAVLDKWVNDPHRMDRRLLALIYLAHASDVLENAFAPLLDEQYDLATKRVRQLLDLDPEVECLKANTNEVLWAVVAAFTK
[1]
  chemical shift perturbation, A245: 0.023 p.p.m
  chemical shift perturbation, A294: 0.02332 p.p.m
  chemical shift perturbation, D247: 0.05478 p.p.m
  chemical shift perturbation, D258: 0.09666 p.p.m
  chemical shift perturbation, E259: 0.06997 p.p.m
  chemical shift perturbation, H202: 0 p.p.m
  chemical shift perturbation, K266: 0.1082 p.p.m
  chemical shift perturbation, K298: 0.09652 p.p.m
  chemical shift perturbation, Q260: 0.1208 p.p.m
  chemical shift perturbation, S246: 0.08006 p.p.m
  chemical shift perturbation, T200: 0 p.p.m
  chemical shift perturbation, T201: 0 p.p.m
  chemical shift perturbation, T265: 0.1157 p.p.m
  chemical shift perturbation, T297: 0.1247 p.p.m
  chemical shift perturbation, Y261: 0.1039 p.p.m
[2]
  Tm / melting temperature: 55 °C
[3]
  % alpha: 36%
  % beta parallel: 0%
  % beta-antiparallel: 13%
  % others: 36%
  % turn: 15%
[4]
  oligomeric state: monomeric
